Measurements from article PMC8960791 (Communications Biology, 2022).

B1: CA125 (antibody, V domains shown)
VH: EVQLVESGGGLVKPGGSLRLSCAASGFTFSSYSMNWVRQAPGKGLEWVSSISSSSSYIYYADSVKGRFTISRDNAKNSLYLQMNSLRAEDTAVYYCARVVDTAMGDAFDIWGQGTMVTVSS
VL: not shown
B2: CA134 (antibody, V domains shown)
VH: EVQLVESGGGLVKPGGSLRLSCAASGFTFSSYSMNWVRQAPGKGLEWVSSISSSSSYIYYADSVKGRFTISRDNAKNSLYLQMNSLRAEDTAVYYCARVFGEQLVSFFDYWGQGTLVTVSS
VL: EIVMTQSPPGERATLSCRASQSVSSNLAWYQQKPGQAPRLLIYGASTRATGIPARFSGSGSGTEFTLTISSLQSEDFAVYYCQQYNNWPPWTFGQGTKVEIK
B3: CA149 (antibody, V domains shown)
VH: EVQLVESGGGLVKPGGSLRLSCAASGFTFSSYSMNWVRQAPGKGLEWVSSISSSSSYIYYADSVKGRFTISRDNAKNSLYLQMNSLRAEDTAVYYCARCAAGFVPDAFDIWGQGTMVTVSS
VL: not shown
B4: CA131 (antibody, V domains shown)
VH: QLQLQESGSGLVKPSQTLSLTCAVSGGSISSGGYSWSWIRQPPGKGLEWIGYIYHSGSTYYNPSLKSRVTISVDRSKNQFSLKLSSVTAADTAVYYCATGGGHKELGGWGQGTLVTVSS
VL: not shown
B5: CA148 (antibody, V domains shown)
VH: QVQLVQSGAEVKKPGASVKVSCKASGYTFTSYGISWVRQAPGQGLEWMGWISAYNGNTNYAQKLQGRVTMTTDTSTSTAYMELRSLRSDDTAVYYCARTPGDEYYYYYYMDVWGKGTTVTVSS
VL: EIVLTQSPATLSLSPGERATLSCRASQSVSSYLAWYQQKPGQAPRLLIYDASNRATGIPARFSGSGSGTDFTLTISSLEPEDFAVYYCQQRSNWPRTFGQGTKLEIK
B6: CA146 (antibody, V domains shown)
VH: QVQLVESGGGVVQPGRSLRLSCAASGFTFSSYGMHWVRQAPGKGLEWVAVISYDGSNKYYADSVKGRFTISRDNSKNTLYLQMNSLRAEDTAVYYCAKDRYSIVGATSNGMDVWGQGTTVTVSS
VL: not shown
B7: CA157 (antibody, V domains shown)
VH: EVQLVESGGGLVQPGGSLRLSCAASGFTFSSYEMNWVRQAPGKGLEWVSYISSSGSTIYYADSVKGRFTISRDNAKNSLYLQMNSLRAEDTAVYYCARGYCSSTSCPFDYWGQGTLVTVSS
VL: not shown
B8: CA155 (antibody, V domains shown)
VH: QVQLVESGGGLVKPGGSLRLSCAASGFTFSDYYMSWIRQAPGKGLEWVSYISSSSSYTNYADSVKGRFTISRDNAKNSLYLQMNSLRAEDTAVYYCARGGIYYYYYMDVWGKGTTVTVSS
VL: not shown
B9: CA141 (antibody, V domains shown)
VH: EVQLVESGGGLVKPGGSLRLSCAASGFTFSSYSMNWVRQAPGKGLEWVSSISSSSSYIYYADSVKGRFTISRDNAKNSLYLQMNSLRAEDTAVYYCARASENGDDAFDIWGQGTMVTVSS
VL: EIVLTQSPATLSLSPGERATLSCRASQSVSSYLAWYQQKPGQAPRLLIYDASNRATGIPARFSGSGSGTDFTLTISSLEPEDFAVYYCQQRSNWPPYTFGQGTKLEIK
B10: CA144 (antibody, V domains shown)
VH: EVQLVESGGGLVKPGGSLRLSCAASGFTFSSYSMNWVRQAPGKGLEWVSSISSSSSYIYYADSVKGRFTISRDNAKNSLYLQMNSLRAEDTAVYYCARDRVEMAFHFDYWGQGTLVTVSS
VL: not shown
B11: CA143 (antibody, V domains shown)
VH: EVQLVESGGGLVKPGGSLRLSCAASGFTFSSYSMNWVRQAPGKGLEWVSSISSSSSYIYYADSVKGRFTISRDNAKNSLYLQMNSLRAEDTAVYYCARDSLPAGDYFDYWGQGTLVTVSS
VL: DIQLTQSPSFLSASVGDRVTITCRASQGISSYLAWYQQKPGKAPKLLIYAASTLQSGVPSRFSGSGSGTEFTLTISSLQPEDFATYYCQQLNSYPQTTFGGGTKVEIK
B12: CA124 (antibody, V domains shown)
VH: QVQLVESGGGLVKPGGSLRLSCAASGFTFSDYYMSWIRQAPGKGLEWVSYISSSGSTIYYADSVKGRFTISRDNAKNSLYLQMNSLRAEDTAVYYCASGFSSWGADDYWGQGTLVTVSS
VL: HPDDPVSSSLSASVGDRVTITCRASQGISNYLAWFQQKPGKAPKSLIYAASSLQSGVPSKFSGSGSGTDFTLTISSLQPEDFATYYCQQYNSYPLTFGQGTKLEIK
B13: CA128 (antibody, V domains shown)
VH: QVQLVESGGGLVKPGGSLRLSCAASGFTFSDYYMSWIRQAPGKGLEWVSYISSSGSTIYYADSVKGRFTISRDNAKNSLYLQMNSLRAEDTAVYYCARDSGSFVGVFDYWGQGTLVTVSS
VL: not shown
B14: CA145 (antibody, V domains shown)
VH: QVQLVESGGGLVKPGGSLRLSCAASGFTFSDYYMSWIRQAPGKGLEWVSYISSSGSTIYYADSVKGRFTISRDNAKNSLYLQMNSLRAEDTAVYYCARDVLELRWWFDPWGQGTLVTVSS
VL: not shown
B15: CA154 (antibody, V domains shown)
VH: not shown
VL: AIRMTQSPSSFSASTGDRVTITCRASQGISSYLAWYQQKPGKAPKLLIYAASTLQSGVPSRFSGSGSGTDFTLTISCLQSEDFATYYCQQYYSYALTFGGGTKVEIK
B16: CA162 (antibody, V domains shown)
VH: QVQLVESGGGLVKPGGSLRLSCAASGFTFSDYYMSWIRQAPGKGLEWVSYISSSSSYTNYADSVKGRFTISRDNAKNSLYLQMNSLRAEDTAVYYCARGRTMFKNYYDSSGYYGYFDYWGQGTLVTVSS
VL: DIQMTQSPSSVSASVGDRVTITCRASQGISSWLAWYQQKPGKAPKLLIYAASSLQSGVPSRFSGSGSGTDFTLTISSLQPEDFATYYCQQANSPLTFGGGTKVEIK
B17: CA156 (antibody, V domains shown)
VH: EVQLVESGGGLVKPGGSLRLSCAASGFTFSSYSMNWVRQAPGKGLEWVSSISSSSSYIYYADSVKGRFTISRDNAKNSLYLQMNSLRAEDTAVYYCARDFSGDFWSGYDYWGQGTLVTVSS
VL: not shown
B18: CA159 (antibody, V domains shown)
VH: QVQLVQSGAEVKKPGSSVKVSCKASGGTFSSYAISWVRQAPGQGLEWMGGIIPIFGTANYAQKFQGRVTITADESTSTAYMELSSLRSEDTAVYYCARASYYYYYMDVWGKGTTVTVSS
VL: not shown
B19: CA120 (antibody, V domains shown)
VH: EVQLVESGGGLVQPGGSLRLSCVASGFTFSTYSMNWVRQAPGKGLEWVSYISSSSSTIYYADSVKGRFTISRDNAKNSLYLQMNSLRAEDTAVYYCARDPGWLSWFDPWGQGTLVTVSS
VL: RSLPAPWSLSPGERATLSCRASQSVSNSYLAWYQQKPGQAPRLLIYGASSRATGIPDRFSGSGSGTDFTLTISRLEPEDFAVYYCQQYGGSPRTFGQGTKVEIK
B20: CA135 (antibody, V domains shown)
VH: EVQLVESGGGLVQPGGSLRLSCVASGFTFSTYSMNWVRQAPGKGLEWVSYISSSSSTIYYADSVKGRFTISRDNAKNSLYLQMNSLRAEDTAVYYCARDPGWLSWFDPWGQGTLVTVSS
VL: not shown
B21: CA133 (antibody, V domains shown)
VH: EVQLVESGGGLVQPGGSLRLSCVASGFTFSSYSMNWVRQAPGKGLEWVSYISSSSSTIYYADSVKGRFTISRDNAKNSLYLQMNSLRAEDTAVYYCARDPGWLSWFDPWGQGTLVTVSS
VL: not shown
B22: CA137 (antibody, V domains shown)
VH: EVQLVESGGGLVQPGGSLRLSCVASGFTFSTYSMNWVRQAPGKGLEWVSYISSSSSTIYYADSVKGRFTISRDNAKNSLYLQMNSLRAEDTAVYYCARDPGWLSWFDPWGQGTLVTVSS
VL: not shown
B23: CA132 (antibody, V domains shown)
VH: EVQLVESGGGLVQPGGSLRLSCVASGFTFSTYSMNWVRQAPGKGLEWVSYISSSSSTIYYADSVKGRFTISRDNAKNSLYLQMNSLRAEDTAVYYCARDPGWLSWFDPWGQGTLVTVSS
VL: EIVLTQSPPGERATLSCRASQSVSNSYLAWYQQKPGQAPRLLIYGASSRATGIPDRFSGSGSGTDFTLTISRLEPEDFAVYYCQQYGGSPRTFGQGTKVEIK
B24: CA150 (antibody, V domains shown)
VH: QVQLVQSGAEVKKPGSSVKVSCKASGGTFSSYAISWVRQAPGQGLEWMGGIIPIFGTANYAQKFQGRVTITADESTSTAYMELSSLRSEDTAVYYCASFPNCSSTSCYYYYYMDVWGKGTTVTVSS
VL: QSALTQPASVSGSPGQSITISCTGTSSDVGGYNYVSWYQQHPGKAPKLMIYDVSNRPSGVSNRFSGSKSGNTASLTISGLQAEDEADYYCSSYTSSSTRDVVFGGGTKLTVL
B25: CA123 (antibody, V domains shown)
VH: EVQLVESGGGLVQPGGSLRLSCAASGFTFSSYWMHWVRQAPGKGLVWVSRINSDGSSTSYADSVKGRFTISRDNAKNTLYLQMNSLRAEDTAVYYCARDQGSTSCYYCYYGMDVWGQGTTVTVSS
VL: not shown
B26: CA139 (antibody, V domains shown)
VH: not shown
VL: DIQMTQSPSSLSASVGDRVTITCRASQGISNYLAWFQQKPGKAPKSLIYAASSLQSGVPSKFSGSGSGTDFTLTISSLQPEDFATYYCQQYNSYPLTFGGGTKVEIK
B27: CA151 (antibody, V domains shown)
VH: RCSCRSRAPGLVKPSETLSLTCTVSGGSVSSGSYYWSWIRQPPGKGLEWIGYIYYSGSTNYNPSLKSRVTISVDTSKNQFSLKLSSVTAADTAVYYCASFTRMSPYAFDIWGQGTMVTVSS
VL: not shown
B28: CA153 (antibody, V domains shown)
VH: EVQLVESGGGLVKPGGSLRLSCAASGFTFSSYSMNWVRQAPGKGLEWVSSISSSSSYIYYADSVKGRFTISRDNAKNSLYLQMNSLRAEDTAVYYCARLTYYYYMDVWGKGTTVTVSS
VL: not shown
B29: CA158 (antibody, V domains shown)
VH: EVQLVESGGGLVKPGGSLRLSCAASGFTFSSYSMNWVRQAPGKGLEWVSSISSSSSYIYYADSVKGRFTISRDNAKNSLYLQMNSLRAEDTAVYYCARMYQLAAIDYWGQGTLVTVSS
VL: not shown

What follows are binders tested against soluble HLA-E-VL9, HLA-E*01:03 heavy chain refolded with β2-microglobulin and synthetic VL9 peptide (Homo sapiens, HLA-E*01:03, strain).

Binder	binding result	Kd [µM]
B1	binds	–
B2	binds	–
B3	binds	–
B4	binds	–
B5	binds	–
B6	binds	–
B7	binds	–
B8	binds	–
B9	binds	–
B10	binds	–
B11	binds	–
B12	binds	–
B13	binds	–
B14	binds	–
B15	binds	–
B16	binds	–
B17	binds	–
B18	binds	–
B19	binds	–
B20	binds	–
B21	binds	–
B22	binds	–
B23	binds	–
B24	binds	–
B25	–	3.8
B26	binds	–
B27	binds	–
B28	binds	–
B29	binds	–
